# Results taken from IntAct's records for PubMed 10846174.
# B1: Apoptosis regulator ced-9 (Caenorhabditis elegans), P41958 (parent)
# chain: MTRCTADNSLTNPAYRRRTMATGEMKEFLGIKGTEPTDFGINSDAQDLPSPSRQASTRRMSIGESIDGKINDWEEPRLDIEGFVVDYFTHRIRQNGMEWFGAPGLPCGVQPEHEMMRVMGTIFEKKHAENFETFCEQLLAVPRISFSLYQDVVRTVGNAQTDQCPMSYGRLIGLISFGGFVAAKMMESVELQGQVRNLFVYTSLFIKTRIRNNWKEHNRSWDDFMTLGKQMKEDYERAEAEKVGRRKQNRRWSMIGAGVTAGAIGIVGVVVCGRMMFSLK
# partner: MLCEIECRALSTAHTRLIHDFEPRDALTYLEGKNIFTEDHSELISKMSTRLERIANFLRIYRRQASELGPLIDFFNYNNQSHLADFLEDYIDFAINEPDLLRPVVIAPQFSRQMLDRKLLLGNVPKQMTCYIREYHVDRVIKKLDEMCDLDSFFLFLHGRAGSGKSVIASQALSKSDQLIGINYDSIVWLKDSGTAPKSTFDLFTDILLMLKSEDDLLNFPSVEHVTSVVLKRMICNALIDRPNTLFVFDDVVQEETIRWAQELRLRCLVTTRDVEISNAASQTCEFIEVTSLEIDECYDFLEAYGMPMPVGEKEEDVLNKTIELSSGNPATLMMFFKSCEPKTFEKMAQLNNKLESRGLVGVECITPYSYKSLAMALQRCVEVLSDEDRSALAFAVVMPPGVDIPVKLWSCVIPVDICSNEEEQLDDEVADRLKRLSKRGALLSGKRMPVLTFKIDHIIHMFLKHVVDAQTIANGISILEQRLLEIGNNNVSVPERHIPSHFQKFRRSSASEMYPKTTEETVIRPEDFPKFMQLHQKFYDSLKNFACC
# B2: Apoptosis regulator ced-9 (Caenorhabditis elegans), P41958 (parent)
# chain: B1 chain
# partner: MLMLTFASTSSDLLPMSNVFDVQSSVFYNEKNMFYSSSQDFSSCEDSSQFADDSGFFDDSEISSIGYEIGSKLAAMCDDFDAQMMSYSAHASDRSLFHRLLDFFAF
# Variants of: B1
# Settings: with ced4_caeel ced-4, P30429
row,Variant,effect of a mutation on the interaction
1,MTRCTADNSLTNPAYRRRTMATGEMKEFLGIKGTEPTDFGINSDAQDLPSPSRQASTRRMSIGESIDGKINDWEEPRLDIEGFVVDYFTHRIRQNGMEWFGAPGLPCGVQPEHEMMRVMGTIFEKKHAENFETFCEQLLAVPRISFSLYQDVVRTVGNAQTDQCPMSYERLIGLISFGGFVAAKMMESVELQGQVRNLFVYTSLFIKTRIRNNWKEHNRSWDDFMTLGKQMKEDYERAEAEKVGRRKQNRRWSMIGAGVTAGAIGIVGVVVCGRMMFSLK [G169E],with no effect

# Variants of: B2
# Settings: with egl1_caeel egl-1, O61667
row,Variant,effect of a mutation on the interaction
1,MTRCTADNSLTNPAYRRRTMATGEMKEFLGIKGTEPTDFGINSDAQDLPSPSRQASTRRMSIGESIDGKINDWEEPRLDIEGFVVDYFTHRIRQNGMEWFGAPGLPCGVQPEHEMMRVMGTIFEKKHAENFETFCEQLLAVPRISFSLYQDVVRTVGNAQTDQCPMSYERLIGLISFGGFVAAKMMESVELQGQVRNLFVYTSLFIKTRIRNNWKEHNRSWDDFMTLGKQMKEDYERAEAEKVGRRKQNRRWSMIGAGVTAGAIGIVGVVVCGRMMFSLK [G169E],with no effect

# Variants of: B2
# Settings: with egl1_caeel egl-1, O61667
# Remark: another data set of the same source
row,Variant,effect of a mutation on the interaction
1,MTRCTADNSLTNPAYRRRTMATGEMKEFLGIKGTEPTDFGINSDAQDLPSPSRQASTRRMSIGESIDGKINDWEEPRLDIEGFVVDYFTHRIRQNGMEWFGAPGLPCGVQPEHEMMRVMGTIFEKKHAENFETFCEQLLAVPRISFSLYQDVVRTVGNAQTDQCPMSYERLIGLISFGGFVAAKMMESVELQGQVRNLFVYTSLFIKTRIRNNWKEHNRSWDDFMTLGKQMKEDYERAEAEKVGRRKQNRRWSMIGAGVTAGAIGIVGVVVCGRMMFSLK [G169E],decreasing interaction strength
